The results in this text go back to paper PMC4462951.

Where a chain is given by its changes, count along the chain named.

The target in data set [1] is T1, Hot1 (Saccharomyces cerevisiae BY4741, UniProt Q03213 1-719).
T1 sequence: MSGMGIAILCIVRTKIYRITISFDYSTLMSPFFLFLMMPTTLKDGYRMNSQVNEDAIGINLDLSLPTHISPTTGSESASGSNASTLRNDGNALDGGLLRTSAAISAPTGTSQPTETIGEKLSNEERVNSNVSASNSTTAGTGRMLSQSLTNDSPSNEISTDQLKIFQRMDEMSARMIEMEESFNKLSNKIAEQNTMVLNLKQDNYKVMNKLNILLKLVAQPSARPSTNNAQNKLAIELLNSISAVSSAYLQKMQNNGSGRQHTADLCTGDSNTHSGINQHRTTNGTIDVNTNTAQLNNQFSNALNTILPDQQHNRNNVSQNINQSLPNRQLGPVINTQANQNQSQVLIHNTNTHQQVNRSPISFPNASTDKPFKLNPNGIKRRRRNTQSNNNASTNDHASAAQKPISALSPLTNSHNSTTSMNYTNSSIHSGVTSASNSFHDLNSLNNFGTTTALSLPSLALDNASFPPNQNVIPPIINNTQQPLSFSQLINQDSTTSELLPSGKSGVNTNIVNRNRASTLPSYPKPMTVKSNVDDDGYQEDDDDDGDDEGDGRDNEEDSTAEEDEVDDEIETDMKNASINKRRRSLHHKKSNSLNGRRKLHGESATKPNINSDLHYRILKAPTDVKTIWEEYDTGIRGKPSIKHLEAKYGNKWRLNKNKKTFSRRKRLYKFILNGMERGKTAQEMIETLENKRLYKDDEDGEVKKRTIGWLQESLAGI
Description: EMSA. On the technique in general: A gel shift assay detects complexes by their altered migration in electrophoresis.

Data set [2] has as its target T1, Hot1. Description: competition.

B1: STL1 promoter HoRE, E6 probe (dsDNA)
DNA 1: CTATTCCACCGCATTTGGCCCATTTGGCTCACTTTGACTCAACTTGCGTCATTTTAACTGATATG
DNA 2: CATATCAGTTAAAATGACGCAAGTTGAGTCAAAGTGAGCCAAATGGGCCAAATGCGGTGGAATAG
With B1, in the data set with Hot1 [1], the binding result is “binds”.

B2: RM9 (E6 with mutated HoRE repeats) (dsDNA)
DNA 1: B1 DNA 1 with T15C, C19T, T24C, C28T, T34C, C38T
DNA 2: B1 DNA 2 with G28A, A32G, G38A, A42G, G47A, A51G
B2: the binding result with Hot1 [2] is reported as “no binding”.
